Measured values as given in the Human Domainome abundance scans (Beltran et al. 2025).
± gives the uncertainty stated by the source.

B1: POU domain, class 3, transcription factor 2, residues 262 to 338; numbered along this chain, P20265 (parent)
chain: EDTPTSDDLEQFAKQFKQRRIKLGFTQADVGLALGTLYGNVFSQTTICRFEALQLSFKNMCKLKPLLNKWLEEADSS

Variants of: B1
Assay: abundance fitness (aPCA) (normalised: wild type 0, dead -1); higher = more abundant; growth selection in yeast, the domain comes from the species named
Conditions: Homo sapiens

| Variant | abundance fitness |
| --- | --- |
| D75G | -0.032 ± 0.027 |
| D75P | -0.106 ± 0.049 |
| D75R | -0.058 ± 0.028 |
| D75T | -0.014 ± 0.042 |
| Q18G | -0.273 ± 0.031 |
| Q18V | -0.145 ± 0.036 |
| Q18D | -0.068 ± 0.061 |
| Q18S | -0.018 ± 0.037 |
| Q18H | -0.193 ± 0.093 |
| Q18R | -0.077 ± 0.032 |
| Q18C | -0.157 ± 0.044 |
| A28D | -0.182 ± 0.068 |
| A28M | -0.208 ± 0.048 |
| A28R | -0.058 ± 0.028 |
| A28E | 0.035 ± 0.042 |
| A28K | 0.067 ± 0.056 |
| A28F | -0.452 ± 0.1 |
| S56I | -0.662 ± 0.14 |
| S56P | 0.044 ± 0.047 |
| S56C | -0.303 ± 0.056 |
| S56E | -0.128 ± 0.043 |
| S56M | -0.81 ± 0.15 |
| S56K | -0.129 ± 0.047 |
| T3W | -0.202 ± 0.042 |

| Variant | abundance fitness |
| --- | --- |
| T3M | 0.117 ± 0.049 |
| T3A | -0.365 ± 0.042 |
| T3F | -0.142 ± 0.1 |
| F50I | -0.675 ± 0.12 |
| F50A | -0.763 ± 0.065 |
| F50L | -0.487 ± 0.039 |
| F50S | -0.821 ± 0.075 |
| F57I | -0.049 ± 0.063 |
| F57P | -0.063 ± 0.046 |
| F57R | 0.02 ± 0.025 |
| F57K | 0.026 ± 0.042 |
| F57M | -0.046 ± 0.039 |
| F57Q | -0.022 ± 0.042 |
| T46Y | -0.547 ± 0.14 |
| T46L | -0.103 ± 0.032 |
| T46E | -0.035 ± 0.037 |
| T46V | -0.115 ± 0.031 |
| T46N | -0.393 ± 0.1 |
| T46R | -0.376 ± 0.03 |
| T26Q | -0.586 ± 0.092 |
| T26R | -0.457 ± 0.039 |
| T26H | -0.285 ± 0.12 |
| T26K | -0.399 ± 0.063 |
| K69A | -0.094 ± 0.07 |

| Variant | abundance fitness |
| --- | --- |
| K69W | -0.288 ± 0.16 |
| N40M | -0.107 ± 0.051 |
| N40S | 0.022 ± 0.041 |
| N40F | -0.173 ± 0.08 |
| L66Q | -0.233 ± 0.046 |
| L66H | -0.274 ± 0.08 |
| D29A | -0.205 ± 0.035 |
| D29L | -0.63 ± 0.053 |
| D29R | -0.285 ± 0.028 |
| V41Y | -0.12 ± 0.092 |
| V41A | 0.017 ± 0.039 |
| L34D | -0.76 ± 0.12 |
| L34W | -0.973 ± 0.1 |
| L34K | -0.441 ± 0.076 |
| C48V | -0.099 ± 0.026 |
| L71E | -0.598 ± 0.49 |
| L71V | -0.089 ± 0.12 |
| L71C | -0.847 ± 0.37 |
| L71G | -0.445 ± 0.088 |
| A52S | 0.015 ± 0.033 |
| A52V | -0.615 ± 0.043 |
| A52T | -0.02 ± 0.036 |
| A52D | 0.003 ± 0.051 |
| A52M | -0.091 ± 0.039 |

| Variant | abundance fitness |
| --- | --- |
| A52L | -0.111 ± 0.037 |
| E10S | -0.028 ± 0.034 |
| E10K | 0.124 ± 0.037 |
| E10H | 0.093 ± 0.047 |
| E10P | -0.189 ± 0.051 |
| G24I | -0.94 ± 0.14 |
| G24H | -0.466 ± 0.1 |
| G24R | -0.408 ± 0.027 |
| G24S | -0.646 ± 0.049 |
| G24Y | -0.86 ± 0.12 |
| G24A | -0.598 ± 0.04 |
| I21T | -0.179 ± 0.053 |
| I21A | -0.236 ± 0.037 |
| I21M | 0.01 ± 0.039 |
| I21E | -0.004 ± 0.037 |
| I21K | -0.112 ± 0.058 |
| V30Y | -0.652 ± 0.26 |
| V30N | -0.381 ± 0.25 |
| V30S | -1 ± 0.21 |
| V30M | -0.655 ± 0.12 |
| V30D | -0.794 ± 0.31 |
| Q54V | -0.535 ± 0.06 |
| Q54M | -0.294 ± 0.074 |
| Q54L | -0.316 ± 0.049 |

| Variant | abundance fitness |
| --- | --- |
| Q54Y | -0.726 ± 0.27 |
| L67A | -0.553 ± 0.12 |
| L67M | 0.006 ± 0.085 |
| L67T | -0.407 ± 0.32 |
| L67G | -1.05 ± 0.21 |
| S76T | -0.019 ± 0.043 |
| S76Y | -0.14 ± 0.068 |
| S76F | -0.161 ± 0.056 |
| S76G | 0.004 ± 0.026 |
| L63W | -0.489 ± 0.037 |
| L63S | -0.668 ± 0.059 |
| L63H | -0.451 ± 0.11 |
| L63F | -0.347 ± 0.082 |
| L63M | 0.004 ± 0.045 |
| E72R | -0.068 ± 0.03 |
| E72M | -0.117 ± 0.054 |
| E72P | -0.655 ± 0.11 |
| S43I | -0.768 ± 0.19 |
| S43E | -0.031 ± 0.039 |
| E73K | 0.118 ± 0.089 |
| E73W | -0.076 ± 0.073 |
| E73L | -0.013 ± 0.06 |
| E73T | 0.089 ± 0.073 |
| E73C | 0.024 ± 0.12 |

| Variant | abundance fitness |
| --- | --- |
| E73S | -0.071 ± 0.068 |
| E73I | -0.009 ± 0.12 |
| E73N | -0.192 ± 0.34 |
| S77C | -0.184 ± 0.067 |
| S77V | 0.008 ± 0.042 |
| S77F | -0.155 ± 0.13 |
| S77M | -0.17 ± 0.078 |
| S77P | 0.003 ± 0.041 |
| S77I | -0.031 ± 0.077 |
| K22D | 0.041 ± 0.047 |
| K22C | -0.042 ± 0.057 |
| K22M | -0.073 ± 0.046 |
| K22T | -0.143 ± 0.05 |
| K22Q | -0.028 ± 0.043 |
| K14D | -0.012 ± 0.2 |
| K14G | -0.251 ± 0.057 |
| K14R | -0.077 ± 0.064 |
| L55K | -0.409 ± 0.066 |
| L55A | -0.567 ± 0.048 |
| L55E | -0.298 ± 0.037 |
| L55N | -0.633 ± 0.16 |
| L55W | -0.645 ± 0.043 |
| L55H | -0.266 ± 0.08 |
| L55C | -0.318 ± 0.045 |

| Variant | abundance fitness |
| --- | --- |
| L55T | -0.583 ± 0.069 |
| F25N | -0.709 ± 0.11 |
| F25S | -0.513 ± 0.049 |
| F25D | -0.749 ± 0.11 |
| F25T | -0.632 ± 0.079 |
| F25A | -0.183 ± 0.033 |
| F25I | -0.096 ± 0.064 |
| F25L | -0.08 ± 0.03 |
| F25E | -0.773 ± 0.092 |
| Q11W | -0.196 ± 0.033 |
| Q11D | -0.114 ± 0.066 |
| Q11P | -0.629 ± 0.08 |
| S6T | 0.099 ± 0.038 |
| S6Q | 0.124 ± 0.035 |
| S6P | 0.059 ± 0.041 |
| I47F | -0.787 ± 0.2 |
| I47G | -1 ± 0.06 |
| I47V | -0.121 ± 0.027 |
| I47Q | -0.723 ± 0.094 |
| I47E | -0.772 ± 0.074 |
| K62T | -0.059 ± 0.039 |
| K62F | -0.126 ± 0.086 |
| K62V | -0.089 ± 0.031 |
